Literature values as cited in PMC7248048.

What was measured:
[1] = target: Fibronectin (Homo sapiens) (UniProt P02751)
[2] = target: Vitronectin (Homo sapiens) (UniProt P04004)
UniProt P04004, sequence (P04004 399-478): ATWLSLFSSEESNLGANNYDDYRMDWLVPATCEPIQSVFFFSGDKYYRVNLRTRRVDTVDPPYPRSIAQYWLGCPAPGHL

UniProt P02751, sequence (P02751 32-2477): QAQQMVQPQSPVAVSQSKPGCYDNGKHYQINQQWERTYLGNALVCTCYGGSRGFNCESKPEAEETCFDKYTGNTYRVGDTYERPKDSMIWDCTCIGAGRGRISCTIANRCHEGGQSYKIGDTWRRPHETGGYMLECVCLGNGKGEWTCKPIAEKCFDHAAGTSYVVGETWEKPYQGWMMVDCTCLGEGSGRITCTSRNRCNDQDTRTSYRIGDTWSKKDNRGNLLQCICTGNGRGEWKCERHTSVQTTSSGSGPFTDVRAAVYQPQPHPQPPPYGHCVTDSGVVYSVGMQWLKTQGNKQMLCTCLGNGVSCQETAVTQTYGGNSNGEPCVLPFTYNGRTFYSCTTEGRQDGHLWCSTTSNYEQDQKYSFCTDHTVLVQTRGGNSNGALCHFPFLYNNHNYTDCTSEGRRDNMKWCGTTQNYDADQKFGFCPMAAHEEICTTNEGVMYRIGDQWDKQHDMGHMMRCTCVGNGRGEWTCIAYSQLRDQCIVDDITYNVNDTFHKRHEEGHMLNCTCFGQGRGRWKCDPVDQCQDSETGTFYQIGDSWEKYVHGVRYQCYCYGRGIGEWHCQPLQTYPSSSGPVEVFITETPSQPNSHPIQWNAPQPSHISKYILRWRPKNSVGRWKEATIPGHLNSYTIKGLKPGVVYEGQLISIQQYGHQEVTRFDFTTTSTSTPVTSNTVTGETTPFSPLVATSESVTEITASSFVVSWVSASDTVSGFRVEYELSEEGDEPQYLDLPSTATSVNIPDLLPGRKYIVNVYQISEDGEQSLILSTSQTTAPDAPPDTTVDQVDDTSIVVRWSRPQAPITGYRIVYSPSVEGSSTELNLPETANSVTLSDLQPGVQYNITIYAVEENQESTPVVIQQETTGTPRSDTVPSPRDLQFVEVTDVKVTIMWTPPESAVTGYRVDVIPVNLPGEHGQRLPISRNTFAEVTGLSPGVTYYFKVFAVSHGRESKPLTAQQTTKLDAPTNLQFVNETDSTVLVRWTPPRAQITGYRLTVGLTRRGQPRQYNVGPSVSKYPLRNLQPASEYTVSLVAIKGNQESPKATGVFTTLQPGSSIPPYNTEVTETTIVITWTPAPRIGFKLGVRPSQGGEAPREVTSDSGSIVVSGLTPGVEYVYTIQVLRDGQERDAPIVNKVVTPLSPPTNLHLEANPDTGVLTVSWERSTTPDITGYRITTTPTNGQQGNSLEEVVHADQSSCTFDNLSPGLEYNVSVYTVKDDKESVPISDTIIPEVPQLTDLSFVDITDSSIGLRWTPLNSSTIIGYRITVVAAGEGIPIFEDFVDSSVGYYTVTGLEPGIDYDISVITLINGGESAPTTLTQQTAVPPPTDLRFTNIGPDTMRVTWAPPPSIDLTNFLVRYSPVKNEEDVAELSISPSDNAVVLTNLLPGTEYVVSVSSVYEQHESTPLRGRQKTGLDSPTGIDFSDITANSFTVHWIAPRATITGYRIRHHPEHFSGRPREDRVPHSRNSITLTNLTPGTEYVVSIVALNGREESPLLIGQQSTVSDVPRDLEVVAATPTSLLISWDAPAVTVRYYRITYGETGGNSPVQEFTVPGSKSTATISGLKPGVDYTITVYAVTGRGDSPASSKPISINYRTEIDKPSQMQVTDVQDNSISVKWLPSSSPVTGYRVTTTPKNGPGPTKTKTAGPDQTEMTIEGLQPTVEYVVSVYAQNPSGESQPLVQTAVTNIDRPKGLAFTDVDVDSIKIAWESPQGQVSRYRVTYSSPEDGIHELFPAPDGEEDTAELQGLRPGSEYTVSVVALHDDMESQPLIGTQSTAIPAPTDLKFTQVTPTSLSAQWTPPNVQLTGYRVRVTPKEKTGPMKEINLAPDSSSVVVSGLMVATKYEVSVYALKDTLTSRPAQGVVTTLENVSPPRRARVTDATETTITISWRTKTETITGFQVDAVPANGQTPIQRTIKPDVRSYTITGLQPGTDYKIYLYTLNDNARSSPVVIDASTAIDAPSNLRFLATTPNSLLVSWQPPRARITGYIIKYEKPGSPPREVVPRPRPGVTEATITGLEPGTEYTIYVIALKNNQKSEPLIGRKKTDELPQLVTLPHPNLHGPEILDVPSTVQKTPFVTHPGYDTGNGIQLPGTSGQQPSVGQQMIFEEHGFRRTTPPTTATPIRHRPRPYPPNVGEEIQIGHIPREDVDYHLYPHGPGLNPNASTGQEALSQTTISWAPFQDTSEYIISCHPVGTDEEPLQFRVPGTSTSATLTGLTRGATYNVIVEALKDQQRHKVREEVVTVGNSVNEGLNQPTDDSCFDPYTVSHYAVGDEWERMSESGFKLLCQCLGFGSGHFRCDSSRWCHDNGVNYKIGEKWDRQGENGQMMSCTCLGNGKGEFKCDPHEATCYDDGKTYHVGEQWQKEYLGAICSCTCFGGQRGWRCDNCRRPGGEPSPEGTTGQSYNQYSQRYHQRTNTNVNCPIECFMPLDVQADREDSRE

Substance: Haemophilus lipoprotein e (P4) (from UniProt P26093)
- Kd [1]: 10.2 nM
- Kd [2]: 16.5 nM
